Data on 2 molecules can be found in patent US20260007714A1 (TEN PEAKS, published 2026).

One assay addresses T1, HLA-B*15:01 (human).
T1 construct: the method paragraph describes expression only for HLA-B*39:01
The assay can be described thus: refolding of HLA with synthetic peptide, size-exclusion chromatography (FIG. 4B).

The target in the next assay is T2, HLA-B*57:01 (human).
T2 construct: the method paragraph describes expression only for HLA-B*39:01; also called HLA-B*057:01
The experiment in a line: refolding of HLA with synthetic peptide, size-exclusion chromatography (FIG. 4A). For orientation: Size exclusion chromatography separates by hydrodynamic size, large species first.

B1: SEQ ID NO: 1 (THQGLSSPV), synthetic peptide derived from the infliximab light chain (peptide)
peptide: THQGLSSPV
notes: Synthetic peptide (Genscript) derived from infliximab; also called 3901_thq
For B1, the binding result with HLA-B*15:01 and in the assay with HLA-B*57:01 was “no binding” throughout.

B2: SEQ ID NO: 2 (TKGPSVFPL), synthetic peptide derived from the infliximab heavy chain (peptide)
peptide: TKGPSVFPL
notes: Synthetic peptide (Genscript) derived from infliximab; also called 3901_tkg
On to B2, for which the binding result with HLA-B*15:01 and with HLA-B*57:01 was “no binding” throughout.
